Publication PMC5507214

Target: RPA (Homo sapiens, UniProt P27694;P15927;P35244 1-616;1-270;1-121)
Assay: EMSA

Sequence of RPA (P27694 whole entry, chain 1 of 3): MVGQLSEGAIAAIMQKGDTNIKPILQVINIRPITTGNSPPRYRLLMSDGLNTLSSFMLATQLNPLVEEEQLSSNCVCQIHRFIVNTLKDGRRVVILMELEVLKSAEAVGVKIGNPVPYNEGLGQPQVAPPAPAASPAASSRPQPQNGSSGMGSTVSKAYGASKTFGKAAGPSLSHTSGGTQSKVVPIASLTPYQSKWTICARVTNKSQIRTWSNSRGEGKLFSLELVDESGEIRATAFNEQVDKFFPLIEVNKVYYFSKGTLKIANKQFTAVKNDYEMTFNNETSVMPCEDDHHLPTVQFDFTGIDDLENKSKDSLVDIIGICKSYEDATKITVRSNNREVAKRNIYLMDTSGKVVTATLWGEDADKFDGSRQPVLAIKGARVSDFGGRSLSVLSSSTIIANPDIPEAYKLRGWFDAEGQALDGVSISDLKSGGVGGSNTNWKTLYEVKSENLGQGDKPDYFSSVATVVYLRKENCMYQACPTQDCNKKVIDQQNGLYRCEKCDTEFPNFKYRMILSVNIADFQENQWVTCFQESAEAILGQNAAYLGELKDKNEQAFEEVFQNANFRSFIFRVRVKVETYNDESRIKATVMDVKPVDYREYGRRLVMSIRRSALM
Sequence of RPA (P15927 whole entry, chain 2 of 3): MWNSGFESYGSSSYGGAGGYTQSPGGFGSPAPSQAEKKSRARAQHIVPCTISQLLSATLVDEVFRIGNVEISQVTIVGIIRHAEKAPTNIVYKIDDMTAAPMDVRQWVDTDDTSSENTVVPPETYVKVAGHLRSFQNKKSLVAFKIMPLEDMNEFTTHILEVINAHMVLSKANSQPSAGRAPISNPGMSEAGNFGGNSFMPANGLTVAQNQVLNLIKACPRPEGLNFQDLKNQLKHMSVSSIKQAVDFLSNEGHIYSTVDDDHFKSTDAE
Sequence of RPA (P35244 whole entry, chain 3 of 3): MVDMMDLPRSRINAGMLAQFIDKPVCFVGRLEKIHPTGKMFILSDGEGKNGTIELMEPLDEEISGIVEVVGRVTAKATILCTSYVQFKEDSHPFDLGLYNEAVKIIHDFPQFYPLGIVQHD

B1: R:D (25-bp RNA:DNA hybrid) (DNA:RNA)
RNA: GCAGCUGGCACGACAGGUAUGAAUC
DNA: GATTCATACCTGTCGTGCCAGCTGC
binding result: no binding
